Test results: PMC7501853

Target: nesprin-2-Giant, Q6ZWQ0-1
Experiment: Duolink PLA (proximity ligation assay) in cells
Conditions: chain shown with the change; Bax/Bak DKO MEFs, transient transfection, in the presence of Q-VD-OPH; anti-Bax (6A7) Ab and anti-nesprin-2G Ab; n = 3; parent: est. 5.1; read off a plot; scale: fold of normalized Duolink dots per transfected cell relative to GFP

B1: GFP-Bax, Q07812 63-65A (protein)
chain: MDGSGEQPRGGGPTSSEQIMKTGALLLQGFIQDRAGRMGGEAPELALDPVPQDASTKKLSECAAAIGDELDSNMELQRMIAAVDTDSPREVFFRVAADMFSDGNFNWGRVVALFYFASKLVLKALCTKVPELIRTIMGWTLDFLRERLLGWIQDQGGWDGLLSYFGTPTWQTVTIFVAGVLTASLTIWKKMG
Q: Which response does the source give for B1 here?
A: Its response is 8.8.
